We go through ten molecules from patent US20250152746A1, “BASE EDITING OF ANGPTL3 AND METHODS OF USING SAME FOR TREATMENT OF DISEASE” (Verve Therapeutics, Inc., priority 2020, published 2025).

The data set concerns PCSK9 gene. The experiment in a line: PCSK9 gRNA/SpCas9 editing in primary cynomolgus hepatocytes (Tables 2, 22). Format: cell-based, cynomolgus monkey. The following applies: for Cyno Primary Hepatocyte Editing % 100: 100 ng/RNA/mL; for Cyno Primary Hepatocyte Editing % 100 / Cyno Primary Hepatocyte Editing % 500 / Cyno Primary Hepatocyte Editing % 2500: SpCas9 mRNA MS002 1:1 by weight; for Cyno Primary Hepatocyte Editing % 500: 500 ng/RNA/mL; for Cyno Primary Hepatocyte Editing % 2500: 2500 ng/RNA/mL. The procedure: In set of experiments, PCSK9 gRNAs were co-transfected with an equivalent amount (1:1 ratio by weight) of in vitro transcribed commercially available SpCas9 mRNA MS002 purchased from TriLink Biotechnologies into primary human hepatocytes at 2500, 500, or 100 ng/RNA/mL and processed as described in detailed methods. Extracted genomic DNA was analyzed for gene editing at the target site with next-generation sequencing of PCR amplicons generated around the target sites. Samples were prepared using the Nextera XT DNA library preparation kit (Illumina) according to the manufacturer's protocol. Briefly, two rounds of PCR were performed first to amplify the region of interest and second to add DNA sequences required for next generation sequencing and sample identification to the initial product. The final amplicon was sequenced on the Illumina MiSeq instrument according to the manufacturer's protocol. A wide range of editing activities (Table 2) were observed. In a second set of experiments, ANGPTL3 gRNAs were co-transfected with an equivalent amount of in vitro transcribed SpCas9 mRNA (1:1 ratio by weight) into primary human hepatocytes and processed and analyzed similarly (Table 3).
[…] Genomic DNA was processed, sequenced, and analyzed as described in the detailed methods section. GA266 was transfected independently twice to serve as two positive controls.
Plating, culturing, and transfection of primary hepatocytes. Primary human liver hepatocytes (PHH) and primary cynomolgus liver hepatocytes (PCH) from BioIVT were cultured per the manufacturer's protocol. Briefly, primary human hepatocytes and primary cyno hepatocytes were obtained as frozen aliquots from BioIVT. Four lots of primary human hepatocytes, each derived from a de-identified individual donor, were used for the experiments: STL (main donor) was used for all experiments, including screening experiments and off-target experiments; HLY, JLP, and TLY were used for off-target experiments. The HFG lot of primary cyno hepatocytes were used for experiments. Following the manufacturer's instructions, cells were thawed and rinsed prior to plating in 24-well plates that had been coated with bovine collagen overnight, with a density of approximate 350,000 cells/well in INVITROGRO hepatocyte medium supplemented with TORPEDO antibiotic mix (BioIVT). The cells were thawed and resuspended in hepatocyte thawing medium followed by centrifugation at 100 g for 10 min at 4° C. The supernatant was discarded, and the pelleted cells resuspended in hepatocyte plating medium. Each vial contains approximately 5 million cells that were used for plating one 24-well plate. Plated cells were allowed to settle and adhere for 4-6 h in a tissue culture incubator at 37° C. under 5% CO2 atmosphere. After incubation, cells were checked for monolayer formation. The incubating media were then replaced with fresh hepatocyte maintenance media (complete INVITROGRO medium obtained from BioIVT, the cell line provider). The cells thus became ready for transfection. Each of the gRNAs were co-transfected with an equivalent amount of in vitro transcribed ABE8.8 mRNA (1:1 ratio by molecular weight) into primary human hepatocytes via MessengerMax reagent (Lipofectamine), using various dilutions to assess for editing activity at different concentrations of test article. MessengerMAX from Thermo Fisher is used for transfection. Solution A: desired amount of guide RNA is mixed with 1:1 wt ratio of mRNA in OptiMEM. Solution B: MessengerMAX in OptiMEM. After mixing solutions A and B, the mixture was incubated at room temperature for 20 min. 60 μL of the incubated solution was added dropwise to each cell wells. For protospacer sequences that were a perfect match to the corresponding cynomolgous monkey PCSK9 or ANGPTL3 gene sequence, each gRNA was also co-transfected with an equivalent amount of ABE8.8 mRNA (1:1 ratio by molecular weight) into primary cynomolgous hepatocytes, and followed the same transfection protocol. […]

Where [1] appears, read: SpCas9 mRNA MS002, 625 ng/test article/mL, rep1.
[2] abbreviates: SpCas9 mRNA MS002, 625 ng/test article/mL, rep2.
[3] abbreviates: SpCas9 mRNA MS002, 1250 ng/test article/mL, rep1.
Where [4] appears, read: SpCas9 mRNA MS002, 1250 ng/test article/mL, rep2.
The mark [5] stands for this setting: SpCas9 mRNA MS002, 2500 ng/test article/mL, rep1.
Where [6] appears, read: SpCas9 mRNA MS002, 2500 ng/test article/mL, rep2.

In the oligonucleotide strings, read from the 5' end, every base follows the letter of its sugar. An asterisk marks phosphorothioate; unmarked linkages are phosphodiester. Other units and linkages are bracketed, terminal groups are in braces. A string of capitals states the bases alone. m = 2'-O-methyl; r = 2'-OH (RNA)

B1: GA244: PCSK9 gRNA; protospacer TTCCGAATAAACTCCAGGCC (SEQ ID NO: 237) (nucleic acid)
guide: UUCCGAAUAAACUCCAGGCCGUUUUAGAGCUAGAAAUAGCAAGUUAAAAUAAGGCUAGUCCGUUAUCAACUUGAAAAAGUGGCACCGAGUCGGUGCUUUU
modifications: sugars from the 5' end m3 r94 m3, linkages s3 o93 s3 (s phosphorothioate, o phosphodiester), T or U not given here
With B1, the “Cyno Primary Hepatocyte Editing % 100” value is 1.63%, the “Cyno Primary Hepatocyte Editing % 500” value worked out at 7.89% and the “Cyno Primary Hepatocyte Editing % 2500” value is listed as 28.16%.

B2: GA398 (nucleic acid)
guide: mU*mC*mA*rGrCrUrCrCrArGrGrCrGrGrUrCrCrUrGrGmGrUrUrUrUrArGmAmGmCmUmAmGmAmAmAmUmAmGmCmAmArGrUrUmArAmArAmUrAmAmGmGmCmUmArGrUrCmCrGrUrUrAmUmCrArAmCmUmUmGmAmAmAmAmAmGmUmGmGmCmAmCmCmGmAmGmUmCmGmGmUmGmCmU*mU*mU*mUmUmUmU
For the molecule B2, the “Cynomolgus Primary Hepatocytes-% Editing” value was determined as 39.09% under setting [1]; 44% under setting [2]; 56.45% under setting [3]; 55.21% under setting [4]; 59.85% under setting [5]; 63.97% under setting [6].

B3: GA243: PCSK9 gRNA; protospacer GGCGAGGGCTGGGGTCGTGC (SEQ ID NO: 236) (nucleic acid)
guide: GGCGAGGGCUGGGGUCGUGCGUUUUAGAGCUAGAAAUAGCAAGUUAAAAUAAGGCUAGUCCGUUAUCAACUUGAAAAAGUGGCACCGAGUCGGUGCUUUU
modifications: sugars from the 5' end m3 r94 m3, linkages s3 o93 s3 (s phosphorothioate, o phosphodiester), T or U not given here
As to B3, the “Cyno Primary Hepatocyte Editing % 100” value was found to be 0.51%, the “Cyno Primary Hepatocyte Editing % 500” value was found to be 1.84% and the “Cyno Primary Hepatocyte Editing % 2500” value was 10.18%.

B4: GA396 (nucleic acid)
guide: mU*mC*mA*rGrCrUrCrCrArGrGrCrGrGrUrCrCrUrGrGmGrUrUrUrUrArGmAmGmCmUmArGmAmAmAmUmAmGmCmAmArGrUrU*mArAmArAmUrAmAmGmGmCmUmArGrUmCmCrGrUrUrAmUmCrArAmCmUmUrGmAmAmAmAmAmGmUmGrGmCmAmCmCmGmAmGmUmCmGmGmUmGmCmU*mU*mU*mUmUmUmU
Take B4: the “Cynomolgus Primary Hepatocytes-% Editing” value by setting is: under setting [1], 44.44%; under setting [2], 41.53%; under setting [3], 56.02%; under setting [4], 52.02%; under setting [5], 53.98%; under setting [6], 56.84%.

B5: GA405: gRNA targeting PCSK9 with modifications to the tracr, for SpCas9 (nucleic acid)
guide: mU*mC*mA*rGrCrUrCrCrArGrGrCrGrGrUrCrCrUrGrGmGrUrUrUrUrArGmAmGmCmUmAmGmAmAmAmUmAmGmCmAmArGrUrUmArAmArAmUrAmAmGmGmCmUmArGrUrCmCrGrUrUrAmUmCrArAmCmUmUmGmAmAmAmAmAmGmUmGmGmCmAmCmCmGmAmGmUmCmGmGmUmGmCmU*mU*mU*mUmUrUmU
Take B5: the “Cynomolgus Primary Hepatocytes-% Editing” value runs as follows: under setting [1], 26.2%; under setting [2], 26.36%; under setting [3], 35.84%; under setting [4], 35.88%; under setting [5], 41.85%; under setting [6], 47.33%. In addition, the “editing efficiency compared to positive control GA266” value (SpCas9 mRNA MS002, 2500, 1250, 625 ng/test article/mL) is given as “slightly lower editing efficiency”.

B6: GA238: PCSK9 gRNA; protospacer GCACGACCCCAGCCCTCGCC (SEQ ID NO: 231) (nucleic acid)
guide: GCACGACCCCAGCCCUCGCCGUUUUAGAGCUAGAAAUAGCAAGUUAAAAUAAGGCUAGUCCGUUAUCAACUUGAAAAAGUGGCACCGAGUCGGUGCUUUU
modifications: sugars from the 5' end m3 r94 m3, linkages s3 o93 s3 (s phosphorothioate, o phosphodiester), T or U not given here
Consider B6, for which the “Cyno Primary Hepatocyte Editing % 100” value is 0.94%, the “Cyno Primary Hepatocyte Editing % 500” value was found to be 4.01% and the “Cyno Primary Hepatocyte Editing % 2500” value amounted to 17.92%.

B7: GA395 (nucleic acid)
guide: mU*mC*mA*rGrCrUrCrCrArGrGrCrGrGrUrCrCrUrGrGmGrUrUrUrUrArGmAmGmCmUmArGmAmAmAmUmAmGmCmAmArGrUrUmArAmArAmUrAmAmGmGmCmUmArGrUmCmCrGrUrUrAmUmCrArAmCmUmUrGmAmAmAmAmAmGmUmGrGmCmAmCmCmGmAmGmUmCmGmGmUmGmCmU*mU*mU*mUmUmUmU
For the molecule B7, the “Cynomolgus Primary Hepatocytes-% Editing” value was found to be 33.87% under setting [1]; 34.57% under setting [2]; 41.48% under setting [3]; 44.35% under setting [4]; 43.91% under setting [5]; 49.53% under setting [6].

B8: GA235: PCSK9 gRNA; protospacer CACCGCTGCCGGCAACTTCC (SEQ ID NO: 228) (nucleic acid)
guide: CACCGCUGCCGGCAACUUCCGUUUUAGAGCUAGAAAUAGCAAGUUAAAAUAAGGCUAGUCCGUUAUCAACUUGAAAAAGUGGCACCGAGUCGGUGCUUUU
modifications: sugars from the 5' end m3 r94 m3, linkages s3 o93 s3 (s phosphorothioate, o phosphodiester), T or U not given here
For the molecule B8, the “Cyno Primary Hepatocyte Editing % 100” value stood at 2.51%, the “Cyno Primary Hepatocyte Editing % 500” value stood at 17.51% and the “Cyno Primary Hepatocyte Editing % 2500” value worked out at 50.03%.

B9: GA397 (nucleic acid)
guide: mU*mC*mA*rGrCrUrCrCrArGrGrCrGrGrUrCrCrUrGrGmGrUrUrUrUrArGmAmGmCmUmArGmAmAmAmUmAmGmCmAmArGrUrUmArAmArAmUrAmAmGmGmCmUmArGrUmCmCrGrUrU*rAmUmCrArAmCmUmUrGmAmAmAmAmAmGmUmGrGmCmAmCmCmGmAmGmUmCmGmGmUmGmCmU*mU*mU*mUmUmUmU
Take B9: the “Cynomolgus Primary Hepatocytes-% Editing” value under setting [1] amounted to 40.72%; the “Cynomolgus Primary Hepatocytes-% Editing” value under setting [2] worked out at 46.28%; the “Cynomolgus Primary Hepatocytes-% Editing” value under setting [3] stood at 56.47%; the “Cynomolgus Primary Hepatocytes-% Editing” value under setting [4] is on record as 58.68%; the “Cynomolgus Primary Hepatocytes-% Editing” value under setting [5] amounted to 56.65%; the “Cynomolgus Primary Hepatocytes-% Editing” value under setting [6] was 58.59%.

B10: GA242: PCSK9 gRNA; protospacer TCACCGCTGCCGGCAACTTC (SEQ ID NO: 235) (nucleic acid)
guide: UCACCGCUGCCGGCAACUUCGUUUUAGAGCUAGAAAUAGCAAGUUAAAAUAAGGCUAGUCCGUUAUCAACUUGAAAAAGUGGCACCGAGUCGGUGCUUUU
modifications: sugars from the 5' end m3 r94 m3, linkages s3 o93 s3 (s phosphorothioate, o phosphodiester), T or U not given here
In the case of B10, the “Cyno Primary Hepatocyte Editing % 100” value came to 1.79%, the “Cyno Primary Hepatocyte Editing % 500” value was 7.13% and the “Cyno Primary Hepatocyte Editing % 2500” value was found to be 31.71%.
